Entries after “also recorded” stand apart in the source; their conditions may differ.
System: intestinal stem cells (ISCs)
Test: ISC colony formation efficiency / ISC expansion in hydrogels
Type: cell-based, mouse
Details: PEG-RGD, Wnt3a-containing medium
Experimental: Freshly isolated crypts or single cells from dissociated colonies were added to the Matrigel or hydrogels precursor solution and cast in 20-μL droplets at the bottom of wells in 24-well plate. […] For single cell culture, thiazovivin (2.5 μM; Stemgent) and Jagged-1 peptide ([…]; Anaspec) was included in the medium during the first two days. Broad spectrum protease inhibitor, GM6001, was added to the medium while embedding the cells in PEG hydrogels. Every two days the growth factors were replenished and the full medium was changed.
To quantify the colony formation efficiency of single embedded ISCs, phase contrast z-stacks spanning the entire thickness of the cell-laden Matrigel or PEG gels were collected (Zeiss Axio Observer Z1) at 5 different locations within the gels. The Cell Counter plugin in ImageJ (NIH) was used to quantify the fraction of cells which had formed colonies at day 4 after seeding. To assess the viability of intestinal tissue fragments embedded in PEG, phase contrast images of the entire gel were collected. The fraction of viable tissues was estimated based upon the epithelial morphology: tissues that featured an epithelial monolayer surrounding a central lumen after 24 h of embedding were deemed viable.

B1: Wnt3a: recombinant Wnt3a (protein, UniProt P56704 19-352, looked up)
Protein Wnt-3a: SYPIWWSLAVGPQYSSLGSQPILCASIPGLVPKQLRFCRNYVEIMPSVAEGIKIGIQECQHQFRGRRWNCTTVHDSLAIFGPVLDKATRESAFVHAIASAGVAFAVTRSCAEGTAAICGCSSRHQGSPGKGWKWGGCSEDIEFGGMVSREFADARENRPDARSAMNRHNNEAGRQAIASHMHLKCKCHGLSGSCEVKTCWWSQPDFRAIGDFLKDKYDSASEMVVEKHRESRGWVETLRPRYTYFKVPTERDLVYYEASPNFCEPNPETGSFGTRDRTCNVSSHGIDGCDLLCCGRGHNARAERRREKCRCVFHWCCYVSCQECTRVYDVHTCK
B1 was tested, and the “ISC culture with Wnt3a instead of CHIR99021 and valproic acid” value was “successfully cultured; also recorded: can successfully replace CHIR99021 and VPA”.
